The values that follow come from PMC6400558 (2019).

Where a chain is given by its changes, count along the chain named. Names may count otherwise.

For the test, the target named is T1, dynein intermediate chain (DIC), Q13409.
T1 chain: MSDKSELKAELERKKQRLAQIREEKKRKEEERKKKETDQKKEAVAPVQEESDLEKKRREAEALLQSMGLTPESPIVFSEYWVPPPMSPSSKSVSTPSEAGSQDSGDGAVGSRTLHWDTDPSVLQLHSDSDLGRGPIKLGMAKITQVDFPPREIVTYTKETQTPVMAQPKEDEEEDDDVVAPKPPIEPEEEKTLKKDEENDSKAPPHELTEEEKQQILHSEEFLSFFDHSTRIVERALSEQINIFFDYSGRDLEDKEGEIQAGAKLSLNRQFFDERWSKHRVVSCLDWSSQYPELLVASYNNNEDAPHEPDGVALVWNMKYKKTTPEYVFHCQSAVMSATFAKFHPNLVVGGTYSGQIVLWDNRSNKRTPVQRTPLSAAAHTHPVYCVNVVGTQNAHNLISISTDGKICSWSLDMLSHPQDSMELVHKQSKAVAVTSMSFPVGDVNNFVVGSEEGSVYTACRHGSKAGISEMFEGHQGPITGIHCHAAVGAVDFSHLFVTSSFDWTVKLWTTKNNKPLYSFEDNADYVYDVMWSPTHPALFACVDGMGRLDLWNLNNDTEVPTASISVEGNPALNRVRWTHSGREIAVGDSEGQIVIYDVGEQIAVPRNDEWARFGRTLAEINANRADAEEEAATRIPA
In words: MBP pull-down from HEK293T cell lysate, immunoblot, band intensity quantified. The following applies: chain shown with the change; n = 3; parent: est. 0.46; read off a plot.

B1: MBP-tagged Hook2 Hook+CC1 (N427) WT, Q96ED9 I150A (protein)
chain: MSVDKAELCGSLLTWLQTFHVPSPCASPQDLSSGLAVAYVLNQIDPSWFNEAWLQGISEDPGPNWKLKVSNLKMVLRSLVEYSQDVLAHPVSEEHLPDVSLIGEFSDPAELGKLLQLVLGCAISCEKKQDHIQRIMTLEESVQHVVMEAAQELMTKDTPDSLSPETYGNFDSQSRRYYFLSEEAEEGDELQQRCLDLERQLMLLSEEKQSLAQENAGLRERMGRPEGEGTPGLTAKKLLLLQSQLEQLQEENFRLESGREDERLRCAELEREVAELQHRNQALTSLAQEAQALKDEMDELRQSSERAGQLEATLTSCRRRLGELRELRRQVRQLEERNAGHAERTRQLEDELRRAGSLRAQLEAQRRQVQELQGQRQEEAMKAEKWLFECRNLEEKYESVTKEKERLLAERDSLREANEELRCAQLQ
On to B1, for which the response (Pulldown/Input) was 0.02.

B2: MBP-tagged Hook2 Hook+CC1 (N427) WT, Q96ED9 Q143A (protein)
chain: B1 chain with Q143A, A150I
For B2, the response (Pulldown/Input) is 0.02.
